Our source for the % reduction of co-precipitated Ska1 against Cdt1-WT and Kd values is article doi:10.1101/2022.05.05.490787.

pKd: −log10 of the molar value. “And” between values parts separate entries of the source, which are not always exact repeats. Equal values may be shown once.

The target of assay [1] is HA-Cdt1 phosphomimetic (2E3D) (human) (UniProt Q9H211). Put plainly: co-IP.
Assay [2] has as its target GFP-tagged Cdt1 deletion fragment 92-410 (human) (UniProt Q9H211). Put plainly: BLI. In general terms: BLI is a label-free optical method that tracks binding on a fibre tip over time.
Assay [3] has as its target GFP-Cdt1^2E3D (human) (UniProt Q9H211). As to the kind of experiment: BLI.
The target in assay [4] is GFP-tagged Cdt1 (92-546 a. a.) (human) (UniProt Q9H211). Put plainly: BLI.
Assay [5] addresses GFP-tagged Cdt1 deletion fragment 410-546 (human) (UniProt Q9H211). Put plainly: BLI.

In the case of “SKA1 (endogenous) (from UniProt Q96BD8 1-255) (natural protein)”, the % reduction of co-precipitated Ska1 against Cdt1-WT in assay [1] is 50% and 55%.
By pKd is commonly meant the Kd on a negative log10 scale, so that one unit is a factor of ten. The low end stands for a large Kd, the high end for a small Kd. On to “Ska1 complex (analyte of the BLI experiments) (from UniProt Q96BD8;Q8WVK7)”, for which the pKd is 6.66 in assay [2], 6.73 in assay [3], 7.15 in assay [4] and 6.44 in assay [5].
